Measurements as given in paper PMC2120792.

What was measured:
[1] = molecular target: recombinant human plakoglobin, complete (pQPg) (human) (UniProt P14923); experiment: ELISA
[2] = molecular target: SyPg(234), synaptophysin-plakoglobin chimera truncated after plakoglobin residue 234 (rat | human) (UniProt P07825); experiment: co-IP
[3] = molecular target: SyPg(580), synaptophysin-plakoglobin chimera truncated after plakoglobin residue 580 (rat | human) (UniProt P07825); experiment: co-IP

UniProt P14923, sequence (P14923 whole entry, the tested form may be a part): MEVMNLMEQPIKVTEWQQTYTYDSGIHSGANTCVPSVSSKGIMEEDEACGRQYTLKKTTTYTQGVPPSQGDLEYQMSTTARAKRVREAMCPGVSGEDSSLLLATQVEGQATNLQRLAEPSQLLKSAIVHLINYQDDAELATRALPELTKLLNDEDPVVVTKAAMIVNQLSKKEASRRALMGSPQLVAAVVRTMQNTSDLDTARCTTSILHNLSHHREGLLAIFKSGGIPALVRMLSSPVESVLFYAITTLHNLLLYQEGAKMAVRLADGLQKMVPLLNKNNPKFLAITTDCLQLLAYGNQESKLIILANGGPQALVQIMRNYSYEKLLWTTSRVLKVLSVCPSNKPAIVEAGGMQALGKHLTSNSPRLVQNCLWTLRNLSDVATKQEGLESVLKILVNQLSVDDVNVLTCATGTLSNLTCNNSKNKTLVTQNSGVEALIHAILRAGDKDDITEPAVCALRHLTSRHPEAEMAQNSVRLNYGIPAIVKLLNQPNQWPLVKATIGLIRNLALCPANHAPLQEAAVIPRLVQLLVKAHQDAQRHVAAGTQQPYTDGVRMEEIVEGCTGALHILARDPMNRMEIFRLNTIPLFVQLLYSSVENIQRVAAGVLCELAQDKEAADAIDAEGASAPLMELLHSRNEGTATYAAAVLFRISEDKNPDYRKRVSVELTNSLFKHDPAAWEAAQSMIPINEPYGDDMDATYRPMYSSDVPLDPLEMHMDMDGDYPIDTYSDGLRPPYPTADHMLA

Q: For “HCUv, his-tagged cadherin tail with the IA subdomain of bovine Dsc1 and the C-subdomain of murine E-cadherin”, which fold weaker binding than HCDg [1] is on record?
A: 5 fold

Q: What does the source list for “endogenous desmoglein (Dsg) (from UniProt Q14126 50-1118) (natural protein)”?
A: Dsg coprecipitated relative to SyPg (fraction of that with SyPg) [2]: < 0.33; Dsg coprecipitated relative to SyPg (fraction of that with SyPg) [3]: < 0.33

Q: With “HCDc, his-tagged cadherin tail with the IA subdomain and C-domain of bovine Dsc1 (domain or fragment)” as the substance, how does the fold weaker binding than HCDg [1] read?
A: 2 fold
